# Assay results published in patent publication US20260248892A1 (Sanofi, published 2026).
# Where a chain is given by its changes, count along the chain named.
# B1: scl-Fc fusion protein INS005 (Fc fusion)
# chain: SFVNQHLCGSHLVEALHLVCGERGFAYTDKTEEYPGDVGIVEQCCTSICSLEQLENYCGGEAEDLQVGQVELGGGPGAGSLQPEGSLQGGPSVFLFPPKPKDTLMISRTPEVTCVVVDVSHEDPEVKFNWYVDGVEVHNAKTKPREEQYNSTYRVVSVLTVLHQDWLNGKEYKCKVSNKALPAPIEKTISKAKGQPREPQVYTLPPSRDELTKNQVSLTCLVKGFYPSDIAVEWESNGQPENNYKTTPPVLDSDGSFFLYSKLTVDKSRWQQGNVFSCSVMHEALHNHYTQKSLSLSPGGGGGSAESKYGPPCPPCPA
# B2: scl-Fc fusion protein INS019 (Fc fusion)
# chain: B1 chain with H17E, A26H, D29P, E32G, E33S, D37G, E52S, N56D
# B3: scl-Fc fusion protein INS015 (Fc fusion)
# chain: B1 chain with A26H, D29P, E52S
# B4: scl-Fc fusion protein INS009 (Fc fusion)
# chain: B1 chain with H17E, A26H, D29P, E32G, E33S, D37G
# B5: scl-Fc fusion protein INS014 (Fc fusion)
# chain: B1 chain with A26H, D29P, E32G, E33S, D37G, E52S, N56D
# B6: scl-Fc fusion protein INS007 (Fc fusion)
# chain: B1 chain with E32G, E33S, D37G
# B7: scl-Fc fusion protein INS011 (Fc fusion)
# chain: B1 chain with D29P, E32G, E33S, D37G
# B8: scl-Fc fusion protein INS017 (Fc fusion)
# chain: B1 chain with A26H, D29P, E32G, E33S, D37G, E52S
# B9: scl-Fc fusion protein INS008 (Fc fusion)
# chain: B1 chain with H17E, A26H, E32G, E33S, D37G
# B10: scl-Fc fusion protein INS006 (Fc fusion)
# chain: B1 chain with H17E, A26H
# B11: scl-Fc fusion protein INS010 (Fc fusion)
# chain: B1 chain with D29P
# B12: scl-Fc fusion protein INS002 (Fc fusion)
# chain: FVNQHLCGSHLVEALYLVCGERGFFYTDKTEEYPGDVGIVEQCCTSICSLEQLENYCGGEAEDLQVGQVELGGGPGAGSLQPLALEGSLQGGPSVFLFPPKPKDTLMISRTPEVTCVVVDVSHEDPEVKFNWYVDGVEVHNAKTKPREEQYNSTYRVVSVLTVLHQDWLNGKEYKCKVSNKALPAPIEKTISKAKGQPREPQVYTLPPSRDELTKNQVSLTCLVKGFYPSDIAVEWESNGQPENNYKTTPPVLDSDGSFFLYSKLTVDKSRWQQGNVFSCSVMHEALHNHYTQKSLSLSPGGGGGSAESKYGPPCPPCPA
# B13: scl-Fc fusion protein INS012 (Fc fusion)
# chain: FVNQHLCGSHLVEALHLVCGERGFHYTPKTEEYPGDVGIVEQCCTSICSLSQLEDYCGGEAEDLQVGQVELGGGPGAGSLQPEGSLQGGPSVFLFPPKPKDTLMISRTPEVTCVVVDVSHEDPEVKFNWYVDGVEVHNAKTKPREEQYNSTYRVVSVLTVLHQDWLNGKEYKCKVSNKALPAPIEKTISKAKGQPREPQVYTLPPSRDELTKNQVSLTCLVKGFYPSDIAVEWESNGQPENNYKTTPPVLDSDGSFFLYSKLTVDKSRWQQGNVFSCSVMHEALHNHYTQKSLSLSPGGGGGSAESKYGPPCPPCPA
# B14: scl-Fc fusion protein INS018 (Fc fusion)
# chain: B13 chain with H16E, E31G, E32S, D36G
# B15: scl-Fc fusion protein INS013 (Fc fusion)
# chain: B13 chain with E31G, E32S, D36G
# B16: scl-Fc fusion protein INS016 (Fc fusion)
# chain: B13 chain with E31G, E32S, D36G, D55N
# B17: scl-Fc fusion protein INS020 (Fc fusion)
# chain: B13 chain with H16E, D55N
# Biological target: human insulin receptor isoform B (human, UniProt P06213 28-1382)
# Assay: cell-based or functional assay
row,Binder,hIR-B-phosphorylation [EC50 nM] mean [nM]
1,B1,522
2,B2,292
3,B3,56.3
4,B4,94.1
5,B5,47.9
6,B6,57.3
7,B7,110
8,B8,36
9,B9,90
10,B10,388
11,B11,501
12,B12,22.8
13,B13,178
14,B14,260
15,B15,57.2
16,B16,58.8
17,B17,185

# Biological target: Rat IR (rat, UniProt P15127 27-1383)
# Sequence (P15127 27-1383): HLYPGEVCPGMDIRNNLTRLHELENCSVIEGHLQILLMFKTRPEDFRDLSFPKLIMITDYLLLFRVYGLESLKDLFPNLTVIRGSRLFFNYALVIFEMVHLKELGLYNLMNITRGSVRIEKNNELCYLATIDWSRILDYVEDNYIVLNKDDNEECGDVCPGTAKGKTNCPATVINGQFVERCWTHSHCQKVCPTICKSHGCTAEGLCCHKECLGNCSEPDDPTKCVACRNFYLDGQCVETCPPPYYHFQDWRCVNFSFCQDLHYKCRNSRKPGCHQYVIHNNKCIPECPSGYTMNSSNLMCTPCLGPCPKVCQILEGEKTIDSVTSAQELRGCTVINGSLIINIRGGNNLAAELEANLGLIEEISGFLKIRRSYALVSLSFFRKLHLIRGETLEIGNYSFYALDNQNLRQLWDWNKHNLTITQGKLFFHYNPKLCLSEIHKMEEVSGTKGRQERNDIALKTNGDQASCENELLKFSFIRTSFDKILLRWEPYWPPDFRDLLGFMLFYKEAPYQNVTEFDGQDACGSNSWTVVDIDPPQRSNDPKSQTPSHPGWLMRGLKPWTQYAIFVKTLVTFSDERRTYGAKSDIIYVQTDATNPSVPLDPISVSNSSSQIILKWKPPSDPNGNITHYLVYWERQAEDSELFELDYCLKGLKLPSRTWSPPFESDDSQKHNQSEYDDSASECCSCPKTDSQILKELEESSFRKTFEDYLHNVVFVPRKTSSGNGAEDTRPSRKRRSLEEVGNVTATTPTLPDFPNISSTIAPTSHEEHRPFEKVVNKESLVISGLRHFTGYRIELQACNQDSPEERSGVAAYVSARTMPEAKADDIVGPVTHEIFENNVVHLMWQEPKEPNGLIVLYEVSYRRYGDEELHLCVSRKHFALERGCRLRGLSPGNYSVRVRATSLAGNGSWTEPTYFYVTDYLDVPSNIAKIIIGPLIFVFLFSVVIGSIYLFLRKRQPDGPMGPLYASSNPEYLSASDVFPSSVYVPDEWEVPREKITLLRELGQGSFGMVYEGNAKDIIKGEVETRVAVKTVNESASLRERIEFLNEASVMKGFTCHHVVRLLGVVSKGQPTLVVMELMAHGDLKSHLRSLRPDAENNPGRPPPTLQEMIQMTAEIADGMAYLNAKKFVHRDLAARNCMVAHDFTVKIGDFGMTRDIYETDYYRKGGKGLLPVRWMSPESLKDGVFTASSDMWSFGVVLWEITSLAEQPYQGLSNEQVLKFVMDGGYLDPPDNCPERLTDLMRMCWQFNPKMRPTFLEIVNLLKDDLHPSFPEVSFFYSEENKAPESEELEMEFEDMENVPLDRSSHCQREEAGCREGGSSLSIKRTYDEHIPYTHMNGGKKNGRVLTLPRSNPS
# Assay: cell-based or functional assay
row,Binder,Rat IR phosphorylation [EC50 nM] mean [nM]
1,B1,1570
2,B2,2200
3,B3,95.7
4,B4,137
5,B5,92.8
6,B6,54.8
7,B7,169
8,B8,53.6
9,B9,440
10,B10,286
11,B11,390
12,B12,32.1
13,B13,124
14,B14,233
15,B15,23.6
16,B16,85.5
17,B17,247

# Biological target: human insulin receptor isoform A (human, UniProt P06213-2 28-1370)
# Assay: cell-based or functional assay
row,Binder,hIR-A phosphorylation [EC50 nM] mean [nM]
1,B1,1510
2,B2,666
3,B3,211
4,B4,332
5,B5,300
6,B6,82.5
7,B7,414
8,B8,70.6
9,B9,1410
10,B10,1110
11,B11,1780
12,B12,36
13,B13,466
14,B14,536
15,B15,5.58
16,B16,180
17,B17,718

# Biological target: Pig IR (pig, UniProt F1SCL0 28-1382)
# Assay: cell-based or functional assay
row,Binder,Pig IR phosphorylation [EC 50 nM] mean [nM]
1,B1,61.4
2,B2,43
3,B3,33.5
4,B4,36.6
5,B5,28.4
6,B6,10.8
7,B7,39.6
8,B8,26.3
9,B9,21.2
10,B10,52.5
11,B11,23.5
12,B12,8.12
13,B13,50.6
14,B14,60
15,B15,4.17
16,B16,41.5
17,B17,157
